Experimental data from patent US20230235058A1 (OXFORD UNIVERSITY INNOVATION, published 2023).

T1: human FcγR2A 131H (human, UniProt P12318 34-217)
T1 construct: extracellular domain
T1 sequence (looked up): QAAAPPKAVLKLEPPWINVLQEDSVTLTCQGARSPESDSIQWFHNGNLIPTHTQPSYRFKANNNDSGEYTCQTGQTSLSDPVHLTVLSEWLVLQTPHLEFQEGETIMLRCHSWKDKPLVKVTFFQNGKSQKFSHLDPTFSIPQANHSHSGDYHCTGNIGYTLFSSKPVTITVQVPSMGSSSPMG

T2: human FcγR2B (human, UniProt P31994 43-217)
T2 construct: extracellular domain; also called hFcγR2B; CD32B
T2 sequence (looked up): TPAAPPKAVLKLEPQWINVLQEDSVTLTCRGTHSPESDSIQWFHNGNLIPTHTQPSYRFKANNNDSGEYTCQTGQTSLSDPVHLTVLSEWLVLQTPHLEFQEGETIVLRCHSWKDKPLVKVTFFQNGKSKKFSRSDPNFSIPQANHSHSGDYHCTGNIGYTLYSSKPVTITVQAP

T3: human FcγR2A 131R (human, UniProt P12318 34-217)
T3 construct: extracellular domain
T3 sequence (looked up): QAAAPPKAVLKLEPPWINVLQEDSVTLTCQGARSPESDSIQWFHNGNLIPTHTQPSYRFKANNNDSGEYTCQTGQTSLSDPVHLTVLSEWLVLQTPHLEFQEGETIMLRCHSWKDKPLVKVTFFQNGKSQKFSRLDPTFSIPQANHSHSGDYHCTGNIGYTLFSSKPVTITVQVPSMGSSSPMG


Experiments:
human FcγR2A 131H [1] = molecular target: T1, human FcγR2A 131H; assay: SPR 37C, steady state;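 also: fc variants captured on chip-bound human BTLA ectodomain, recombinant FcγR ectodomains injected as analyte at varied concentrations, double-referenced equilibrium binding fitted to Langmuir model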
human FcγR3A 158V [2] = molecular target: T4, human FcγR3A 158V (human, UniProt P08637 17-208); assay: SPR 37C, steady state;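 also: fc variants captured on chip-bound human BTLA ectodomain, recombinant FcγR ectodomains injected as analyte at varied concentrations, double-referenced equilibrium binding fitted to Langmuir model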
T4 construct: extracellular domain

human FcγR2B [3] = molecular target: T2, human FcγR2B; assay: SPR 37C, steady state;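 also: fc variants captured on chip-bound human BTLA ectodomain, recombinant FcγR ectodomains injected as analyte at varied concentrations, double-referenced equilibrium binding fitted to Langmuir model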
human FcγR2A 131R [4] = molecular target: T3, human FcγR2A 131R; assay: SPR 37C, steady state;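 also: fc variants captured on chip-bound human BTLA ectodomain, recombinant FcγR ectodomains injected as analyte at varied concentrations, double-referenced equilibrium binding fitted to Langmuir model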
human FcRn = molecular target: T5, human FcRn (human, UniProt P55899 24-297; P61769 21-119, limits assumed, biotinylated); assay: SPR, pH6.0
T5 construct: bought; also called FcRn pH6
Protocol: For the high affinity FcR interactions (FcγR1A, and also FcRn assessed at pH6.0) the binding was assessed in a kinetic analysis with antibody as analyte. […] Reference flow cell 1 was left empty in all channels. Purified antibody was then injected at a single concentration and on/off rates calculated by curve fitting on BiaEvaluation software. […] IgG Fc has two binding sites for FcRn so this assessment performed with FcRn immobilised at high density provides an avidity estimate for the interaction rather than a true KD.

human FcγR3A 158F [5] = molecular target: T6, human FcγR3A 158F (human, UniProt P08637 17-208); assay: SPR 37C, steady state; hIgG1 D265A Fc variant
T6 construct: extracellular domain
Protocol: (§1) For the low affinity FcγRs (FcγR2A, FcγR2B, FcγR3A and FcγR3B) the interactions were assessed by surface plasmon resonance with the recombinantly expressed FcRs (extracellular domains only) as analyte. Briefly, recombinant human BTLA extracellular domain (BTLA^K31-R151) was covalently immobilised to both flow cells of all channels of a CMS Series S sensor chip using the GE Healthcare Amine coupling kit. The 2.8.6 Fc variant to be assessed was then captured (approx. 500-1000 response units) in flow cell 2 of each channel. Steady state affinity analysis was then performed by injecting varying concentrations of FcR in multiple cycles and measuring equilibrium binding. Double referencing was used (subtracting the signal in the reference Fc1 and also subtracting the signal from a blank zero concentration injection). KDs were calculated from the Langmuir curves (plotting equilibrium binding against analyte concentration to determine the concentration required for half maximal binding).

human FcγR3B [6] = molecular target: T7, human FcγR3B (human, UniProt O75015 17-200, limits assumed); assay: SPR 37C, steady state; hIgG1 D265A Fc variant
T7 construct: extracellular domain; also called CD16B
Protocol: as §1

human FcγR1A [7] = molecular target: T8, human FcγR1A (human, UniProt P12314 16-288, biotinylated); assay: SPR 37C, kinetic; hIgG1 D265A Fc variant
T8 construct: bought; also called CD64A
Protocol: (§2) For the high affinity FcR interactions (FcγR1A, and also FcRn assessed at pH6.0) the binding was assessed in a kinetic analysis with antibody as analyte. […] Reference flow cell 1 was left empty in all channels. Purified antibody was then injected at a single concentration and on/off rates calculated by curve fitting on BiaEvaluation software.

human FcγR2A 131H [8] = molecular target: T1, human FcγR2A 131H; assay: SPR 37C, steady state; hIgG4 P238D Fc variant
Protocol: (§3) For the low affinity FcγRs (FcγR2A, FcγR2B, FcγR3A and FcγR3B) the interactions were assessed by surface plasmon resonance with the recombinantly expressed FcRs (extracellular domains only) as analyte. […] The 2.8.6 Fc variant to be assessed was then captured (approx. 500-1000 response units) in flow cell 2 of each channel. Steady state affinity analysis was then performed by injecting varying concentrations of FcR in multiple cycles and measuring equilibrium binding. Double referencing was used (subtracting the signal in the reference Fc1 and also subtracting the signal from a blank zero concentration injection). KDs were calculated from the Langmuir curves (plotting equilibrium binding against analyte concentration to determine the concentration required for half maximal binding).

human FcγR3B [9] = molecular target: T7, human FcγR3B; assay: SPR 37C, steady state; hIgG1 D265A A330R Fc variant
Protocol: as §1

human FcγR3A 158F [10] = molecular target: T6, human FcγR3A 158F; assay: SPR 37C, steady state
human FcγR1A [11] = molecular target: T8, human FcγR1A; assay: SPR 37C, kinetic; hIgG1 D265A S267E Fc variant
Protocol: as §2

human FcγR3B [12] = molecular target: T7, human FcγR3B; assay: SPR 37C, steady state
human FcγR2B [13] = molecular target: T2, human FcγR2B; assay: SPR 37C, steady state; hIgG1 D265A G236D A330R Fc variant
Protocol: as §3

human FcγR1A [14] = molecular target: T8, human FcγR1A; assay: SPR 37C, kinetic
Protocol: as §2

human FcγR3A 158V [15] = molecular target: T4, human FcγR3A 158V; assay: SPR 37C, steady state; hIgG1 D265A G236D S267E Fc variant
Protocol: as §3

human FcγR2B [16] = molecular target: T2, human FcγR2B; assay: SPR 37C, steady state; hIgG1 D265A G236D Fc variant
Protocol: as §1

human FcγR2A 131H [17] = molecular target: T1, human FcγR2A 131H; assay: SPR 37C, steady state; hIgG1 D265A P238D Fc variant
Protocol: as §1

human FcγR2B [18] = molecular target: T2, human FcγR2B; assay: as above
Protocol: as §1

human FcγR2A 131R [19] = molecular target: T3, human FcγR2A 131R; assay: as above
Protocol: as §1

T8 sequence (P12314 16-288): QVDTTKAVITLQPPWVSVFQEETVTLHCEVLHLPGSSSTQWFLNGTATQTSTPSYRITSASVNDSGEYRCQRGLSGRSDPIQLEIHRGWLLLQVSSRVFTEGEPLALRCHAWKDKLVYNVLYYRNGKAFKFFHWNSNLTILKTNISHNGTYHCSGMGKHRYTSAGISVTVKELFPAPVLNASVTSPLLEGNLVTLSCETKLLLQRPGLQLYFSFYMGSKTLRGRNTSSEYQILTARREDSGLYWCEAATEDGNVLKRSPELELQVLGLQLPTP
T4 sequence (P08637 17-208 F176V): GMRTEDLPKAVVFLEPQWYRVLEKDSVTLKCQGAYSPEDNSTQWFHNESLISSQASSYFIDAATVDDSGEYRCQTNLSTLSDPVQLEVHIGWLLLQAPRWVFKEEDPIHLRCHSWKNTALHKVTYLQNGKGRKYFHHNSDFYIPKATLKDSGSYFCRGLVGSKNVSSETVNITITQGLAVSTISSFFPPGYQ
T6 sequence (P08637 17-208): as the sequence (P08637 17-208 F176V) above, with V160F counted along it
T7 sequence (O75015 17-200 limits assumed): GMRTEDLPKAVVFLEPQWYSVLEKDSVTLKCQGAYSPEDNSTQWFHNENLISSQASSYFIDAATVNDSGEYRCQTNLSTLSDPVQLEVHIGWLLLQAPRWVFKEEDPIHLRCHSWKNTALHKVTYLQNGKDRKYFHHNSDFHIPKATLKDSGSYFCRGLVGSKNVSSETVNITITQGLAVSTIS

Row | Kd (human FcγR2A 131H [1]) [µM] | binding result (human FcγR3A 158V [2]) | Kd (human FcγR2B [3]) [µM] | Kd (human FcγR2A 131R [4]) [µM] | avidity (FcRn pH6) (human FcRn) [nM] | binding result (human FcγR3A 158F [10]) | binding result (human FcγR3B [12]) | binding result (human FcγR1A [14]) | Binder | also measured
1 | 40.1 | no binding | 193 | 48.3 | 12 |  |  |  | humanised 2.8.6 hIgG1 D265A (antibody, Fc variant with the variable domains of humanised 2.8.6; copies: 2 + 2) heavy: not shown light: EIVLTQSPATLSLSPGERATLSCRASSSVSYMHWYQQKPGQAPRPLIYATSNRATGIPARFSGSGSGTDYTLTISSLEPEDFAVYYCHQWSSNPYTFGQGTKLEIKRTVAAPSVFIFPPSDEQLKSGTASVVCLLNNFYPREAKVQWKVDNALQSGNSQESVTEQDSKDSTYSLSSTLTLSKADYEKHKVYACEVTHQGLSSPVTKSFNRGEC | Kd (human FcγR3A 158F [5]): 1490 µM; Kd (human FcγR3B [6]): 5200 µM; Kd (human FcγR1A [7]): 0.497 µM
2 |  |  | 17.5 | 47.9 |  |  |  |  | humanised 2.8.6 hIgG4 P238D (antibody, Fc variant with the variable domains of humanised 2.8.6; not shown: human IgG4 heavy chain constant region; copies: 2 + 2) heavy: not shown VL: EIVLTQSPATLSLSPGERATLSCRASSSVSYMHWYQQKPGQAPRPLIYATSNRATGIPARFSGSGSGTDYTLTISSLEPEDFAVYYCHQWSSNPYTFGQGTKLEIKRTVAAPSVFIFPPSDEQLKSGTASVVCLLNNFYPREAKVQWKVDNALQSGNSQESVTEQDSKDSTYSLSSTLTLSKADYEKHKVYACEVTHQGLSSPVTKSFNRGEC | Kd (human FcγR2A 131H [8]): 312 µM
3 | 39.4 | no binding | 347 | 67 |  | no binding |  |  | humanised 2.8.6 hIgG1 D265A A330R (antibody, Fc variant with the variable domains of humanised 2.8.6; copies: 2 + 2) heavy: not shown light: EIVLTQSPATLSLSPGERATLSCRASSSVSYMHWYQQKPGQAPRPLIYATSNRATGIPARFSGSGSGTDYTLTISSLEPEDFAVYYCHQWSSNPYTFGQGTKLEIKRTVAAPSVFIFPPSDEQLKSGTASVVCLLNNFYPREAKVQWKVDNALQSGNSQESVTEQDSKDSTYSLSSTLTLSKADYEKHKVYACEVTHQGLSSPVTKSFNRGEC | Kd (human FcγR3B [9]): 9100 µM
4 | 173 | no binding | 157 | 26.7 | 11.9 | no binding | no binding |  | humanised 2.8.6 hIgG1 D265A S267E (antibody, Fc variant with the variable domains of humanised 2.8.6; copies: 2 + 2) heavy: not shown light: EIVLTQSPATLSLSPGERATLSCRASSSVSYMHWYQQKPGQAPRPLIYATSNRATGIPARFSGSGSGTDYTLTISSLEPEDFAVYYCHQWSSNPYTFGQGTKLEIKRTVAAPSVFIFPPSDEQLKSGTASVVCLLNNFYPREAKVQWKVDNALQSGNSQESVTEQDSKDSTYSLSSTLTLSKADYEKHKVYACEVTHQGLSSPVTKSFNRGEC | Kd (human FcγR1A [11]): 0.415 µM
5 | 91.3 | no binding |  | 91.8 | 14 | no binding | no binding | no binding | humanised 2.8.6 hIgG1 D265A G236D A330R (antibody, Fc variant with the variable domains of humanised 2.8.6; copies: 2 + 2) heavy: QVTLKESGPALVKPTQTLTLTCTVSGFSLTTYGVHWIRQPPGKALEWLGVMWPGGRTSYNPSLKSRLTITKDNSKSQVVLTMTNMDPVDTATYYCVRGDYEYDYYAMDYWGQGTLVTVSSASTKGPSVFPLAPSSKSTSGGTAALGCLVKDYFPEPVTVSWNSGALTSGVHTFPAVLQSSGLYSLSSVVTVPSSSLGTQTYICNVNHKPSNTKVDKKVEPKSCDKTHTCPPCPAPELLDGPSVFLFPPKPKDTLMISRTPEVTCVVVAVSHEDPEVKFNWYVDGVEVHNAKTKPREEQYNSTYRVVSVLTVLHQDWLNGKEYKCKVSNKALPRPIEKTISKAKGQPREPQVYTLPPSREEMTKNQVSLTCLVKGFYPSDIAVEWESNGQPENNYKTTPPVLDSDGSFFLYSKLTVDKSRWQQGNVFSCSVMHEALHNHYTQKSLSLSPGK light: EIVLTQSPATLSLSPGERATLSCRASSSVSYMHWYQQKPGQAPRPLIYATSNRATGIPARFSGSGSGTDYTLTISSLEPEDFAVYYCHQWSSNPYTFGQGTKLEIKRTVAAPSVFIFPPSDEQLKSGTASVVCLLNNFYPREAKVQWKVDNALQSGNSQESVTEQDSKDSTYSLSSTLTLSKADYEKHKVYACEVTHQGLSSPVTKSFNRGEC | Kd (human FcγR2B [13]): 398 µM
6 |  |  | 113 | 61.8 | 18.7 | no binding | no binding | no binding | humanised 2.8.6 hIgG1 D265A G236D S267E (antibody, Fc variant with the variable domains of humanised 2.8.6; copies: 2 + 2) heavy: QVTLKESGPALVKPTQTLTLTCTVSGFSLTTYGVHWIRQPPGKALEWLGVMWPGGRTSYNPSLKSRLTITKDNSKSQVVLTMTNMDPVDTATYYCVRGDYEYDYYAMDYWGQGTLVTVSSASTKGPSVFPLAPSSKSTSGGTAALGCLVKDYFPEPVTVSWNSGALTSGVHTFPAVLQSSGLYSLSSVVTVPSSSLGTQTYICNVNHKPSNTKVDKKVEPKSCDKTHTCPPCPAPELLDGPSVFLFPPKPKDTLMISRTPEVTCVVVAVEHEDPEVKFNWYVDGVEVHNAKTKPREEQYNSTYRVVSVLTVLHQDWLNGKEYKCKVSNKALPAPIEKTISKAKGQPREPQVYTLPPSREEMTKNQVSLTCLVKGFYPSDIAVEWESNGQPENNYKTTPPVLDSDGSFFLYSKLTVDKSRWQQGNVFSCSVMHEALHNHYTQKSLSLSPGK light: EIVLTQSPATLSLSPGERATLSCRASSSVSYMHWYQQKPGQAPRPLIYATSNRATGIPARFSGSGSGTDYTLTISSLEPEDFAVYYCHQWSSNPYTFGQGTKLEIKRTVAAPSVFIFPPSDEQLKSGTASVVCLLNNFYPREAKVQWKVDNALQSGNSQESVTEQDSKDSTYSLSSTLTLSKADYEKHKVYACEVTHQGLSSPVTKSFNRGEC | Kd (human FcγR3A 158V [15]): 1650 µM; binding result (human FcγR2A 131H [1]): no binding
7 |  | no binding |  | 91.4 | 14 | no binding | no binding | no binding | humanised 2.8.6 hIgG1 D265A G236D (antibody, Fc variant with the variable domains of humanised 2.8.6; copies: 2 + 2) heavy: not shown light: EIVLTQSPATLSLSPGERATLSCRASSSVSYMHWYQQKPGQAPRPLIYATSNRATGIPARFSGSGSGTDYTLTISSLEPEDFAVYYCHQWSSNPYTFGQGTKLEIKRTVAAPSVFIFPPSDEQLKSGTASVVCLLNNFYPREAKVQWKVDNALQSGNSQESVTEQDSKDSTYSLSSTLTLSKADYEKHKVYACEVTHQGLSSPVTKSFNRGEC | binding result (human FcγR2A 131H [1]): no binding; Kd (human FcγR2B [16]): 748 µM
8 |  | no binding |  |  |  | no binding | no binding |  | humanised 2.8.6 hIgG1 D265A P238D (antibody, Fc variant with the variable domains of humanised 2.8.6; copies: 2 + 2) heavy: not shown light: EIVLTQSPATLSLSPGERATLSCRASSSVSYMHWYQQKPGQAPRPLIYATSNRATGIPARFSGSGSGTDYTLTISSLEPEDFAVYYCHQWSSNPYTFGQGTKLEIKRTVAAPSVFIFPPSDEQLKSGTASVVCLLNNFYPREAKVQWKVDNALQSGNSQESVTEQDSKDSTYSLSSTLTLSKADYEKHKVYACEVTHQGLSSPVTKSFNRGEC | Kd (human FcγR2A 131H [17]): 4590 µM; Kd (human FcγR2B [18]): 684 µM; Kd (human FcγR2A 131R [19]): 348 µM
